Blank lines part the entries; values can stand above or below the binder they belong to.
Experiments:
[1] = target: G250 antigen (UniProt Q16790 38-459); experiment: flow cytometry (FACS) on G250 positive tumor cells
[2] = target: T1, recombinant human GM-CSF (human, UniProt P04141 18-144); experiment: SPR (BIAcore 2000), rhGM-CSF on the chip, global fitting of Rmax
T1 construct: also called rhGM-CSF
Description: Biosensor analyses were carried out using a commercially available, BIAcore 2000, and a carboxymethyldetran coated sensor chip. The chip was derivatized with 1000, 300, or 100 RVs of recombinant human GM-CSF, on channels 1, 2, and 3 of the machine using standard amine coupling chemistry with channel 4 retained as the control blank channel.
After injection, dissociation was monitored by allowing HBS buffer to flow over the chip surface for 5 minutes. Any bound antibody was then eluted, and the chip surface was regenerated, between samples, via injecting 40 μl of 100 mM HCl, pH 2.7, at a rate of 5 μl/min.

T1 sequence (P04141 18-144 limits assumed): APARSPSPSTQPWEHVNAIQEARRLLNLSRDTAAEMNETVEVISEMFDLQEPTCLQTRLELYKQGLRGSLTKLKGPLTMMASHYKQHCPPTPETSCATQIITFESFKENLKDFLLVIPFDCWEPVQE

binding result [1]: binds
B1: chimeric G250 antibody (antibody, V domains shown)
VH: DVKLVESGAALVKLGGSLKLSCAASGFTFSNYYMSWVRQTPEKRLELVAAINSDGGITYYLDTVKGRFTISRDNAKNTLYLQMSSLKSEDTALFYCARHRSGYFSMDYWGQGTSVTVSS
VL: DIVMTQSQRFMSTTVGDRVSITCKASQNVVSAVAWYQQKPGQSPKLLIYSASNRYTGVPDRFTGSGSGTDFTLTISNMQSEDLADFFCQQYSNYPWTFGGGTKLEIKR
notes: Used as positive control in FACS; Its making is not described apart from this

Ka [2]: 2.69e+10 M⁻¹
koff [2]: 1.9e-05 s⁻¹
B2: chimeric 19/2 anti-human GM-CSF monoclonal antibody (antibody, V domains shown)
VH: EVQLQQSGPELVKPGASVKISCKASGYTFTDYNIHWVKQSHGKSLDWIGYIAPYSGGTGYNQEFKNRATLTVDKSSSTAYMELRSLTSDDSAVYYCARRDRFPYFDYWGQGTTLRVSS
VL: DIVMIQSQKFVSTSVGDRVNITCKASQNVGSNVAWLQQKPGQSPKTLIYSASYRSGRVPDRFTGSGSGTDFILTITTVQSEDLAEYFCQQFNRSPLTFGSGTKLELKR
notes: made in CHO DG44 cells; also called chimeric 19/2 antibody; ch19/2
